Laboratory results from patent US20210340181A1.

Target: T1, αvβ6 integrin (purified), P06756
T1 chain 1: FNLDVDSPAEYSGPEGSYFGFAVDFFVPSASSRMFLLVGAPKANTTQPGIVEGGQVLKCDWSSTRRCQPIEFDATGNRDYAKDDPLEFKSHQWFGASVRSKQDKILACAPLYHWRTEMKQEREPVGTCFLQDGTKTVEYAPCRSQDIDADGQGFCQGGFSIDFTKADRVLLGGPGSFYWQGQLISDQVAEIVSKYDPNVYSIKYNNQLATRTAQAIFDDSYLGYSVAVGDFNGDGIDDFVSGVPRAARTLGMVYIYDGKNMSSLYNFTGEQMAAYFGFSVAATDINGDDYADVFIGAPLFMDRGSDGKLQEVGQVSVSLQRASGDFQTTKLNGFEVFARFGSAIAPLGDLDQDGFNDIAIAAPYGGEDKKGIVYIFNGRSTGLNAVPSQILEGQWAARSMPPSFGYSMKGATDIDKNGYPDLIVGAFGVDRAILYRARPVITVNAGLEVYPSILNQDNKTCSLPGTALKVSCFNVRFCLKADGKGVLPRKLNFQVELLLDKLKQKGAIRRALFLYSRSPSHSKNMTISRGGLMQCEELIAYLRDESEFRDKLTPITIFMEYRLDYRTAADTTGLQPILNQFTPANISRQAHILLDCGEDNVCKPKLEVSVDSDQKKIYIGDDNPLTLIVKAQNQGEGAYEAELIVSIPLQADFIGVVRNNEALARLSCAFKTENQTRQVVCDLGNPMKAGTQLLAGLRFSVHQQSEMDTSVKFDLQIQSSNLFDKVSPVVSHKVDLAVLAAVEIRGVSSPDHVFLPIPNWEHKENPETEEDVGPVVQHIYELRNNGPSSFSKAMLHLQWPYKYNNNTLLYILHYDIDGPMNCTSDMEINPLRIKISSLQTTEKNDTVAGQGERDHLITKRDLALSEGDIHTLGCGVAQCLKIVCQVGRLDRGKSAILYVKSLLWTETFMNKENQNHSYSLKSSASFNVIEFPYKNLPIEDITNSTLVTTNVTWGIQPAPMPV
T1 chain 2: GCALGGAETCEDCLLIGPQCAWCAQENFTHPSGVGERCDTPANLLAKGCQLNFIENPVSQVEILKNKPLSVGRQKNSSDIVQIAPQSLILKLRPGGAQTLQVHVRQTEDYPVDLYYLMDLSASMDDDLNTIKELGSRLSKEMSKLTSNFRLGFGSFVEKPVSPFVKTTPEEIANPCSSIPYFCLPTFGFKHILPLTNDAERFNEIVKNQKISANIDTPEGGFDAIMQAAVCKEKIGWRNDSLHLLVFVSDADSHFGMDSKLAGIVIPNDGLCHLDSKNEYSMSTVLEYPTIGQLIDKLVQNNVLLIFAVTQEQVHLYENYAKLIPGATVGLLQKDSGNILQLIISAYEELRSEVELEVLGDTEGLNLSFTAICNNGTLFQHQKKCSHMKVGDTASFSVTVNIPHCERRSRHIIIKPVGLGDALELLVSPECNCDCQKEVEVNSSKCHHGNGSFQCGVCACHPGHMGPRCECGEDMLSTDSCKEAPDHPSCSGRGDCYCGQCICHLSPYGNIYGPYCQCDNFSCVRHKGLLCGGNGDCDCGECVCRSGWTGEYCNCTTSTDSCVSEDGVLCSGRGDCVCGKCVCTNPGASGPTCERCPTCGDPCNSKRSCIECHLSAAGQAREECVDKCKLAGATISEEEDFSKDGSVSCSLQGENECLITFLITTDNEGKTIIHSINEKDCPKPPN
Test: competitive ELISA vs BtLAP

Binder	IC50 [nM]
VGDLTYLKK (modifications not checked) [P1, …(FB)]	450
RGDLADLRK (modifications not checked) [P3, …(FB)]	420
RSDLTPLF (modifications not checked) [KL3, FB-RSDLTPLF]	1700
RTDLDSLRT (modifications not checked) [RTD-9mer, FB-…]	22
GRGDLGRL (modifications not checked) [SFLAP3-8mer, FB-GRGDLGRL]	89

Target: T2, αvβ8 integrin (purified), P06756
T2 chain 1: T1 chain 1
T2 chain 2: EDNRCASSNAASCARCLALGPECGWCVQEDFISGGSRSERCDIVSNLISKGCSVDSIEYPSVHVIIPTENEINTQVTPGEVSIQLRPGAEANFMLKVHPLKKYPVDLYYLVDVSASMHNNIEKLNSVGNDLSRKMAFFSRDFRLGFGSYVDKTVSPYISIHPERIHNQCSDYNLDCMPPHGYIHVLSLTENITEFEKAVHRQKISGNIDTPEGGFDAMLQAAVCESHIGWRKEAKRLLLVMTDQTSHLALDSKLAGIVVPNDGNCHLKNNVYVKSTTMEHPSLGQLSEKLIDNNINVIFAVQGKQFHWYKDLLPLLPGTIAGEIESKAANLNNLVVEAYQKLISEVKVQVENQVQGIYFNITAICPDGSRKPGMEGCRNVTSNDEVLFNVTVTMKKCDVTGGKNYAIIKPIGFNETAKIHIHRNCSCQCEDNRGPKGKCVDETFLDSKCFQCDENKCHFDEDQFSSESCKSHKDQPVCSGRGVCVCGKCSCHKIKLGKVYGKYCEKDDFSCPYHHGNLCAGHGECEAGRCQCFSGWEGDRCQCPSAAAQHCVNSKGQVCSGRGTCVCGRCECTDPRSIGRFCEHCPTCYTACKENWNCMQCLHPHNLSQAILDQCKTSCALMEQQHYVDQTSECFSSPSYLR
Test: competitive ELISA vs BtLAP

Binder	IC50 [nM]
VGDLTYLKK (modifications not checked) [P1, …(FB)]	5300
RGDLADLRK (modifications not checked) [P3, …(FB)]	200

Target: T3, αvβ6 integrin on DX3puroβ6 (αvβ6+) cells (human), P06756
T3 chain 1: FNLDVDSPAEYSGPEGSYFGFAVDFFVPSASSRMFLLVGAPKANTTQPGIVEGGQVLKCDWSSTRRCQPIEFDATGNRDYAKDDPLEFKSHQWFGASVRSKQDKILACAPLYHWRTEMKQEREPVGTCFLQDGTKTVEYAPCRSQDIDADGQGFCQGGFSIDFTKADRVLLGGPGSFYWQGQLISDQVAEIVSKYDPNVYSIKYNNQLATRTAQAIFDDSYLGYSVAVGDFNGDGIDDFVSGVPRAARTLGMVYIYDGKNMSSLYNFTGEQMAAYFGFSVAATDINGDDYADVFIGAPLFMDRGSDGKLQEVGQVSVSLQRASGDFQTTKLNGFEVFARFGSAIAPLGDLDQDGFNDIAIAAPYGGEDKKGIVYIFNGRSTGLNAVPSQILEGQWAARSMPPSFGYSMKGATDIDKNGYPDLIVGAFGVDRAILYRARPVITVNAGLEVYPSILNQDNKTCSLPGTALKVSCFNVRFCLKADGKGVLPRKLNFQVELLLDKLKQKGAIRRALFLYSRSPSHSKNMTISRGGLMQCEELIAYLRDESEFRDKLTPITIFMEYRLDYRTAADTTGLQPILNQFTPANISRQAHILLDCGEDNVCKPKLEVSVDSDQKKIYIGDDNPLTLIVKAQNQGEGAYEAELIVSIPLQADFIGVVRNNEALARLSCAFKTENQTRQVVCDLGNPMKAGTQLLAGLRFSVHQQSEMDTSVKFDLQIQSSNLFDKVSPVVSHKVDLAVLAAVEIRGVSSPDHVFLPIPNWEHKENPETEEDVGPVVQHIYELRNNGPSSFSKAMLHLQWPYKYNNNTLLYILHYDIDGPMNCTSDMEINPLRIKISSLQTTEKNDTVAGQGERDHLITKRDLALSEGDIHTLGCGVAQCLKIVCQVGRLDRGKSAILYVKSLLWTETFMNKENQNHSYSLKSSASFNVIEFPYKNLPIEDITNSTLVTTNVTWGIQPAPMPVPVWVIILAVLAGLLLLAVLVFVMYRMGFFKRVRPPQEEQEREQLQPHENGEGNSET
T3 chain 2: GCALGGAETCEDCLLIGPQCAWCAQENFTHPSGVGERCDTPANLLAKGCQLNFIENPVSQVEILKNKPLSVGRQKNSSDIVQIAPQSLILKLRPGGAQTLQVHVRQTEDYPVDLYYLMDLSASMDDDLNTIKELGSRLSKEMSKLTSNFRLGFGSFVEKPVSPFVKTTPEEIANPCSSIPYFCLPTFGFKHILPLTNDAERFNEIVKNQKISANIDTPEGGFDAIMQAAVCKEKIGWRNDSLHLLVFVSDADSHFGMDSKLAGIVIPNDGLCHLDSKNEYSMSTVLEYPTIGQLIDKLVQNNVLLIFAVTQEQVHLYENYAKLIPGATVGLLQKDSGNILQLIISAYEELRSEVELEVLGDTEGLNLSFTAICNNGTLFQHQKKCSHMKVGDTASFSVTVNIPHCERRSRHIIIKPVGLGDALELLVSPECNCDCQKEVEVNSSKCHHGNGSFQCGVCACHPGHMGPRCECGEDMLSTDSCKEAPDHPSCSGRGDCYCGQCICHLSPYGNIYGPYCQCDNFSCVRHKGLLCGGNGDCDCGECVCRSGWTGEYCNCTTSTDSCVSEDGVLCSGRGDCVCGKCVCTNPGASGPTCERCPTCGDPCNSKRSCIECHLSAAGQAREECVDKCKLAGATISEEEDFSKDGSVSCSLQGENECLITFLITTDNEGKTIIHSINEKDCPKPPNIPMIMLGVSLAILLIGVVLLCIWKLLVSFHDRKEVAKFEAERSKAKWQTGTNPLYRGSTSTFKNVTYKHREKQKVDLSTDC
Test: 18F peptide cell binding, αvβ6+ over αvβ6- cells

Binder	DX3puroβ6 (αvβ6+)/DX3puro (αvβ6-) selectivity ratio
VGDLTYLKK (modifications not checked) [P1, …(FB)]	1.1
RGDLADLRK (modifications not checked) [P3, …(FB)]	1.4
RSDLTPLF (modifications not checked) [KL3, FB-RSDLTPLF]	0.9
RTDLDSLRT (modifications not checked) [RTD-9mer, FB-…]	1.7
GRGDLGRL (modifications not checked) [SFLAP3-8mer, FB-GRGDLGRL]	1.4
RGDLQVLAQKVART (modifications not checked) [A20-14mer, FB-…]	8.4
RGDLQVLA (modifications not checked) [A20-8mer, FB-RGDLQVLA]	7.8

Target: T3, αvβ6 integrin on DX3puroβ6 (αvβ6+) …
Test: 18F peptide binding to DX3puroβ6 (αvβ6+) cells, 1 h, gamma counting

Binder	% binding to cells [%]
VGDLTYLKK (modifications not checked) [P1, …(FB)]	12.8
RGDLADLRK (modifications not checked) [P3, …(FB)]	10.8
RSDLTPLF (modifications not checked) [KL3, FB-RSDLTPLF]	0.7
